As usually defined, the Kd is the equilibrium constant for the complex coming apart. By Ki is commonly meant the dissociation constant of the complex between target and ligand, obtained from inhibition or displacement. The low end stands for higher affinity, the high end for lower affinity.

Data on 11 substances can be found in paper doi:10.1101/2024.07.31.606116.

Experiment [1] concerns the target RAMP1 ECD-CTR ECD fusion protein (human) (UniProt O60894). The experiment can be described thus: fluorescence polarisation. A general note: Fluorescence polarisation rises when a labelled molecule tumbles more slowly, as on binding a larger partner.
For experiment [2], the target named is RAMP3 ECD-CTR ECD fusion protein (human) (UniProt O60896). In words: fluorescence polarisation.
Experiment [3] deals with RAMP2 ECD-CTR ECD fusion protein (human) (UniProt O60895). In words: fluorescence polarisation.
Experiment [4] addresses full-length human calcitonin receptor C-terminally tagged with NanoLuc luciferase (human) (UniProt P30988).
For a further experiment, the target named is amylin receptor ECDs. The experiment can be described thus: fluorescence polarisation.
The target in experiment [5] is calcitonin receptor (CTR) extracellular domain (ECD) (human). In words: fluorescence polarisation.

Sequence of UniProt O60894 (O60894 whole entry, the tested form may be a part): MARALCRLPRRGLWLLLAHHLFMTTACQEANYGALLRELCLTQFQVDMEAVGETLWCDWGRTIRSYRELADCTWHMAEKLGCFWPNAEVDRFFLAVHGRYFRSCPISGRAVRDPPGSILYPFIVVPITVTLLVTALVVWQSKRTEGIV
Sequence of UniProt O60896 (O60896 whole entry, the tested form may be a part): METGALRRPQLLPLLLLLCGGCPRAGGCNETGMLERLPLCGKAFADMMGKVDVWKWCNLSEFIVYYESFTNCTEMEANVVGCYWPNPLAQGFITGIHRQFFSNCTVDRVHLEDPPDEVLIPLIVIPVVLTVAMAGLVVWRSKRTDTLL
Sequence of UniProt P30988 (P30988 25-474): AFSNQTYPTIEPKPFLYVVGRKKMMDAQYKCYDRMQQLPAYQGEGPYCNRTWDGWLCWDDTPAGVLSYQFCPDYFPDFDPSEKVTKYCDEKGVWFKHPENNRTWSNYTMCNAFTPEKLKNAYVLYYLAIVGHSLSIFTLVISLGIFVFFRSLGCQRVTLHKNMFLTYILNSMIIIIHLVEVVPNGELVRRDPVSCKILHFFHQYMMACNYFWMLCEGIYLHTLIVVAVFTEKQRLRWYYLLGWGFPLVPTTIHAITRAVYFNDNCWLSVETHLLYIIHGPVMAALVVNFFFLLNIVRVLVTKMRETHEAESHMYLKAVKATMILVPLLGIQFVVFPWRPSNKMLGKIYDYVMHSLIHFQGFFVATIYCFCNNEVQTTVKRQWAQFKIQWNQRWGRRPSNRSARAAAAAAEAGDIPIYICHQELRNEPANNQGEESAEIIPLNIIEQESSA
Sequence of UniProt O60895 (O60895 whole entry, looked up, the tested form may be a part): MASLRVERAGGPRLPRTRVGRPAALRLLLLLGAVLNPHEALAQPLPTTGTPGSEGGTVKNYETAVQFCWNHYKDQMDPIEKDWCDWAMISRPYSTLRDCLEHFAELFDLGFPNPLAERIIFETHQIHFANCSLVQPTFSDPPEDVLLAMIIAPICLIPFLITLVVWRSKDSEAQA

“rat amylin(27–37) L27Y/Y37P plus P29R (peptide)” returned a fold increase in affinity over rat amylin(27–37) L27Y/Y37P in experiment [1] of 4 fold.
Regarding “rat amylin(27–37) with Y37HYP (hydroxyproline) mutation (peptide)”, the results for the fold increase in affinity over rat amylin(27–37) Y37P in experiment [2] and in experiment [1] were 3 fold and 5 fold, respectively.
In turn, “rat amylin(27–37) L27Y/Y37P plus S34P (peptide)” displayed a fold increase in affinity over rat amylin(27–37) L27Y/Y37P in experiment [1] of 3.6 fold.
In the case of “FITC-labeled AC413(6–25) with Y25P mutation (peptide)”, the values for the Kd in experiment [3], in experiment [2] and in experiment [1] were 67 nM, 252 nM and 77 nM, respectively.
Consider “rat amylin(27–37) L27Y/Y37P plus S34A (peptide)”, for which, in experiment [1], the fold increase in affinity over rat amylin(27–37) L27Y/Y37P is 2.5 fold.
In the case of “rat amylin(27–37) L27Y/Y37P plus S34HYP (hydroxyproline) (peptide)”, in experiment [1], the fold decrease in affinity against the peptide with S34P was found to be 9 fold.
Regarding pramlintide (peptide), the EC50 of receptor activation (mini-Gs recruitment BRET, HEK293T cells) in experiment [4] was 72 nM.
As to “rat amylin(27–37) with L27Y and Y37P double mutations (peptide)”, the Ki with amylin receptor ECDs was in the range of 4000 to 11000 nM.
Regarding rat amylin(27–37) L27W/Y37P (peptide), the fold increase in affinity over rat amylin(27–37) L27Y/Y37P in experiment [1] worked out at 2 fold.
For “rat amylin(27–37) L27Y/Y37P plus P29K (peptide)”, the fold increase in affinity over rat amylin(27–37) L27Y/Y37P in experiment [1] came to 4 fold.
Turning to “FITC-labeled salmon calcitonin (sCT) fragment(22–32) (peptide)”, in experiment [5], the Kd turned out to be 500 nM.
